Source: paper PMC9569509, “Collagen Type XI Inhibits Lung Cancer-Associated Fibroblast Functions and Restrains the Integrin Binding Site Availability on Collagen Type I Matrix” (International Journal of Molecular Sciences, 2022)

Target: bovine collagen type XI (bovine, UniProt Q28083 279-911; Q32S24 28-1736; P02459 182-1487, Triple helix of alpha1(XI), alpha2(XI) and alpha3(XI), the last being the COL2A1 product; hydroxyproline and glycosylated hydroxylysine. Purchased tissue collagen (Chondrex); limits not given, and t)
Assay: ELISA; solid phase assay: collagens (50 µg/mL) or fibronectin (10 µg/mL) immobilised on a 96-well plate; DDR2-Fc in 0.05 mg/mL κ-casein in PBS-T, 3 h at room temperature; detected by goat anti-human IgG (Fc specific)-HRP; Kd by Scatchard plot
Settings: both partners purified

bovine collagen type XI, sequence (Q28083 279-911, chain 1 of 3): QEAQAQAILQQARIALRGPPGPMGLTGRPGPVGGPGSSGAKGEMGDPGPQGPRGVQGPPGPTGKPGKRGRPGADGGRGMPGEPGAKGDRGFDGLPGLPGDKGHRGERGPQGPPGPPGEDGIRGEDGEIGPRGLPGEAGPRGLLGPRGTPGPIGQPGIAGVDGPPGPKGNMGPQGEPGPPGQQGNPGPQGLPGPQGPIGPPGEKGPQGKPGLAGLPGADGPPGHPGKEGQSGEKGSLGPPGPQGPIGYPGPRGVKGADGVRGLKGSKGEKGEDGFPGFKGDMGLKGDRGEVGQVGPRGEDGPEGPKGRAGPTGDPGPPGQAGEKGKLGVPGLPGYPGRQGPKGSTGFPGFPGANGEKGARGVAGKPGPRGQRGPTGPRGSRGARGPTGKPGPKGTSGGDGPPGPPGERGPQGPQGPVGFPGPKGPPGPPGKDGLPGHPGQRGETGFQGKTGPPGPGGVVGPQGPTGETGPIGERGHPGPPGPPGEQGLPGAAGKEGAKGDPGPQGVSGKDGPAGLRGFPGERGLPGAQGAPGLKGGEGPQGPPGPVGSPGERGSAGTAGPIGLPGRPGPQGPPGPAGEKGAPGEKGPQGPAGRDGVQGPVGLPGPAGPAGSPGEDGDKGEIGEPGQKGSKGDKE
bovine collagen type XI, sequence (Q32S24 28-1736, chain 2 of 3): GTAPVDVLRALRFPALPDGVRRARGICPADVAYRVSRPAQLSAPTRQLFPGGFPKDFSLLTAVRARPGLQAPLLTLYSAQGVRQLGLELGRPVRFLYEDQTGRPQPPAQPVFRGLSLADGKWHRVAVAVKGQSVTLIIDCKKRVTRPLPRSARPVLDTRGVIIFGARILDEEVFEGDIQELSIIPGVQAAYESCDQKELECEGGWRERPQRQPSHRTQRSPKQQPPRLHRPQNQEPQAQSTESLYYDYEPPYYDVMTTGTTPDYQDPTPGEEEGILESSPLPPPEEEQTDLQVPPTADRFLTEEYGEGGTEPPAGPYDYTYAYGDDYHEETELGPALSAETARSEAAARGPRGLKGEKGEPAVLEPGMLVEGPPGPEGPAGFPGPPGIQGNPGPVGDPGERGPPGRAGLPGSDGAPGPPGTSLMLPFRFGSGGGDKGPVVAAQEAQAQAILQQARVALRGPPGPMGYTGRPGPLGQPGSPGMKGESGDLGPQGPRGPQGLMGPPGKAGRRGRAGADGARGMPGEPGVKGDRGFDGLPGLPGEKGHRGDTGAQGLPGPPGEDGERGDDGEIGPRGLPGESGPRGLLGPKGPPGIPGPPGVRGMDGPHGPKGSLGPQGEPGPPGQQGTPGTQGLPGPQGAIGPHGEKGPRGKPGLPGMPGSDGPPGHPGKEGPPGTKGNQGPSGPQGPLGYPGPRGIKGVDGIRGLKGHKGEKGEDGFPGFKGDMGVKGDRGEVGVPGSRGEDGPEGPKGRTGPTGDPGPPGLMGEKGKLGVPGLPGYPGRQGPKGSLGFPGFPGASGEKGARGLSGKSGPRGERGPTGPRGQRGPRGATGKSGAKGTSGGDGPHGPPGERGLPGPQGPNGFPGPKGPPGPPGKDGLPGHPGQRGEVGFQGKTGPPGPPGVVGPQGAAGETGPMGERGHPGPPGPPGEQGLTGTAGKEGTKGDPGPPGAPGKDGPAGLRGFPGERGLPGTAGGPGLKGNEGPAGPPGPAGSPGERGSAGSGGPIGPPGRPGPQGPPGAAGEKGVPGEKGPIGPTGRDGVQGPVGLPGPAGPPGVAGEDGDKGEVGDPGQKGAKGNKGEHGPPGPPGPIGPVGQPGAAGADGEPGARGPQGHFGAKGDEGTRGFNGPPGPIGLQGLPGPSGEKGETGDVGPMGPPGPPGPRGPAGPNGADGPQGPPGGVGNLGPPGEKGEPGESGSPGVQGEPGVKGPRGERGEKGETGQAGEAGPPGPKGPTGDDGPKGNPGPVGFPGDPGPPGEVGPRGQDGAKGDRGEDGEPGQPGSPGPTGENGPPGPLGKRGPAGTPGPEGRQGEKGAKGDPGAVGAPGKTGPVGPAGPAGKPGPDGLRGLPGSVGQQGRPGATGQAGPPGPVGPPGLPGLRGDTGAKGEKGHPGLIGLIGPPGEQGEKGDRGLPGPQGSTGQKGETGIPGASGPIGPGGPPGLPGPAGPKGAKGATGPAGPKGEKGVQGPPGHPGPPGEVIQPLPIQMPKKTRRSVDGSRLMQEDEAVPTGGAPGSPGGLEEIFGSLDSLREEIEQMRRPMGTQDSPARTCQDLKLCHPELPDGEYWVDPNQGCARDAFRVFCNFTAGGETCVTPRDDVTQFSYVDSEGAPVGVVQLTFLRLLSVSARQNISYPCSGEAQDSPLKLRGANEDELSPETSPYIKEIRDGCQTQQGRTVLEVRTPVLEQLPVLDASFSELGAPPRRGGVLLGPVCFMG
bovine collagen type XI, sequence (P02459 182-1487, chain 3 of 3): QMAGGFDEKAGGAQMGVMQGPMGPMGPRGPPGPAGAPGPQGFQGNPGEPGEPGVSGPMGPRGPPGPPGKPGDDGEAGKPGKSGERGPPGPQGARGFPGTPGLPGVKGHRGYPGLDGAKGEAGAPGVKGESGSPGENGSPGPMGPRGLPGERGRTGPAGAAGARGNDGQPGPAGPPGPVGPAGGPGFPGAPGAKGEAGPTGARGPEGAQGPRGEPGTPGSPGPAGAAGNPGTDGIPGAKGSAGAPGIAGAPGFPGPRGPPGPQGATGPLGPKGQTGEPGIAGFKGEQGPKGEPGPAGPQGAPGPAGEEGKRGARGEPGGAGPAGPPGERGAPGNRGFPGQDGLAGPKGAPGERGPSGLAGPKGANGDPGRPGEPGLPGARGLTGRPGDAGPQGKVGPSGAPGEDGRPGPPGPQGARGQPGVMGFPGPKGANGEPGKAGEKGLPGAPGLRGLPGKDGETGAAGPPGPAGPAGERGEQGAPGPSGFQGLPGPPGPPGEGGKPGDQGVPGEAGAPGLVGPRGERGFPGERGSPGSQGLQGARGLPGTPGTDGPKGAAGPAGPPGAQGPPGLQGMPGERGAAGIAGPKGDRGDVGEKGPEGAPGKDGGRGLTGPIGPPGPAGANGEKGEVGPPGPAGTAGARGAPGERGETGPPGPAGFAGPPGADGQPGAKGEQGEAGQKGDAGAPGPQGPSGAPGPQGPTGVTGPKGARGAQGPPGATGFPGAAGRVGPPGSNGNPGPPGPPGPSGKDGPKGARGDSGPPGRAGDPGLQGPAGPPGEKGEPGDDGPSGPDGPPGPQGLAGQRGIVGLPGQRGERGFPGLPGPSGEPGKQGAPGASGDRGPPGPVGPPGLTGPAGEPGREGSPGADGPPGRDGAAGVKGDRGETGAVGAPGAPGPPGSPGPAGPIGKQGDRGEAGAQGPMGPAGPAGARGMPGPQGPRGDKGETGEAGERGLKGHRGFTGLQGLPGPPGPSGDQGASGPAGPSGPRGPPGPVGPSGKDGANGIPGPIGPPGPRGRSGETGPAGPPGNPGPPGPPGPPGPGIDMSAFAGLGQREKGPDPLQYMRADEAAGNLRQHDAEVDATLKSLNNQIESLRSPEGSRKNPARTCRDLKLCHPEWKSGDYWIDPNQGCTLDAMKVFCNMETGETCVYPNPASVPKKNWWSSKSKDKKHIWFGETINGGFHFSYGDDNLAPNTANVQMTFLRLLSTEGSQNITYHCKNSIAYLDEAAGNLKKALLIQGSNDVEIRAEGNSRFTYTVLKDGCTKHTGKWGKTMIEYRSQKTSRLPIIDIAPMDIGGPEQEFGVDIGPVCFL

B1: Recombinant human DDR2-Fc chimera protein (Fc fusion, UniProt Q16832 22-399, looked up)
chain: KAQVNPAICRYPLGMSGGQIPDEDITASSQWSESTAAKYGRLDSEEGDGAWCPEIPVEPDDLKEFLQIDLHTLHFITLVGTQGRHAGGHGIEFAPMYKINYSRDGTRWISWRNRHGKQVLDGNSNPYDIFLKDLEPPIVARFVRFIPVTDHSMNVCMRVELYGCVWLDGLVSYNAPAGQQFVLPGGSIIYLNDSVYDGAVGYSMTEGLGQLTDGVSGLDDFTQTHEYHVWPGYDYVGWRNESATNGYIEIMFEFDRIRNFTTMKVHCNNMFAKGVKIFKEVQCYFRSEASEWEPNAISFPLVLDDVNPSARFVTVPLHHRMASAIKCQYHFADTWMMFSEITFQSDAAMYNNSEALPTSPMAPTTYDPMLKVDDSNTR
notes: discoidin domain receptor 2, human; No catalogue number printed; Probably the extracellular domain of DDR2 joined to a human IgG Fc; Detected by goat anti-human IgG (Fc specific)-HRP; source: bought: Sino Biological
Kd: 2 to 5 nM
